Test results from the DeepSol protein solubility set.

test: soluble on expression in E. coli; label from the status in PepcDB or PDB records

Sequence | soluble on expression in E. coli
MAHHHHHHMLRLCLALRSASVQRKPHLFRIDLTSKHTPGHLYLADRAVKSTAADPCFVCLDNAMTCQTVDSNAAVVLRSCMTKGRELFQYGRMRFQGMSAALVFRHNHLVFQGIGDASVQALEMSLQHKDVFALLGGISPHENIPEWARAVEKAIAEGDVEYVAEEMLLQLRCPTEGCTSVVAKISKFSAGLPEPPNYSHAM | not soluble
VGKEKREIELFVSDPELEAEVKAASEGKMKAAIKTEEKKAREAAIEEVKEEILESYKAKELENEAEILGEVAHILEMIEKDEMRRLISQDKIRPDGRKVNEIRP | not soluble
DTGTISTEEFYNFDNWKGFGYELFEDWSRWVYDWLPDGWNLWKELDRNRSGQYHIYDPLALDLDGDGIETVAAKGFSGSLFDHNGNGIRTATGWVSADDGLLVRDLNGNGIIDNGAELFGDNTKLADGSFAKHGYAALAELDSNGDNIINAADAAFQSLRVWQDLNQDGISQANELRTLEELGIQSLDLAYKDVNKNLGNGNTLAQQGSYTKTDGTTAKMGDLLLAADNLHSRFTNKMLSISHVRENTISPFVLGCLNK | not soluble
MELRAATKLTEEKYELKEGQTLDVKCDYTLEKFASSQKAWQIIRDGEMPKTLACTERPSKNSHPVQVGRIILEDYHDHGLLRVRMVNLQVEDSGLYQCVIYQPPKEPHMLFDRIRLVVTLEHHHHHH | soluble
MNEQIRTILAEDGTKTSKIRKLLLLGLTHREIADLVTRGNRGFVWNVYKRMRDEGLIVSAGTPTATTTPELDYSFRRKFGVEIEAYNCTCQRLVRELTEAGIEVASERYNHDLRPHWKLVTDSSLNGNDTFELVSPILEGEDGLEKLERVCWVLDSCNVKINGSCGLHVHMNAEDFNITTWRNLLLSYKHAEAEIDKFMPASRRGGSNTYCGSLIQFPDERIRSARNIRELQGLFPSRYMKVNLQAYSRHRTVEFRQHSGTISFTKIENWVCFLDRMITFASVGSLPAGIRLEDFPFLGEKQKLYYKLRTKKLAV | not soluble
MGSDKIHHHHHHVQDKNFDKLAQKFAKNIYGTPKGDIRAAVLWRDLAPALAKLGDRKLRVLDAGGGFGYFSQKLARLGHEVVLCDISAEMLAQAQEQIDASPEPLAIQLIHAPIQALSVEQHGYFDIILCHAVVEWLTDAKPTMAGLLTMLKPAGLFSLMFYNKEAMRFHALVSGNFDYVAADLKVKKKVQLTPTHPLYIQEVKEWFSDWQMSLISQSGVRVIHDYLKKSQPVDFDYQKLLQMELEYSQREPYISLGRYVHFLGQSPAV | not soluble
GPGSMSFAQNGTAPSTPAQQSKPEPDASPVAGEGSTSGRCAFDPEALRNLIVNYLPPLMNEAQVYELFGQFGRIESVKIIYDKITGESRGYGFVKYYFFFSATYAVSCLNRFEIGGKKLKVAYANAPAAKEAYDMLRLSAVALSVQQQQAMQSMYYHQMVLAQEQQGASAASSVAASAPMVGGADYGPYMNRVGGGYAMRQRESGAGYAQGMYPGMVAGGSVYLAGPFASGSRIVTPAIAPIGF | not soluble
MSLKTMSDTSEIIFSNYGIYDLGDNLELLLPNTLIKFQRISDNAFSYFRENSEGQIIEKIIPVKSNDIKIELAPIRPLNHPAKRTNYVFLKLDKEIHLGENSAASIFVHCPIEIGIFLIYGDNHEPLDWITCNPLNSRFSLYGSPDTGTLCKYAEVSLATDYNDSVSYVNGVMHIVIENTLSFAQTISKVIFPITDNNLYYKDSKSIVDGIKIIMKKRAAVNIAEIKPTLVDTEWTQAPAWDNSIDSVHHMEMTLEEGHHHHHH | soluble
SLVVAIDPGHGGQDSGAVGPTGKLEKNVTLAIGRELARQINATPGMKAYMTRDSDVFIPLPMRAQRARAAKADIFISIHADAADNRAATGSSVYVLSTRGASSQRARWLADKENAADLVGGVRLQKAEPTLANVLLDLAQSGYMKASEDAADHVLGSLKRVANNHKSEVEHANFAVLRTSDMPAMLVETAFISNAYEERRLVDPAFQRQLAAAVLEGVITFFTNQPPPGTLFALRAQAEPATTGGSVITSTH | not soluble
SFVPSQKTYQGNYGFHLGFLQSGTAKSVMCTYSPPLNKLFCQLAKTCPVQLWVSATPPAGSRVRAMAIYKKSQHMTEVVRRCPHHERCSDGDGLAPPQHLIRVEGNLYPEYLEDRQTFRHSVVVPYEPPEAGSEYTTIHYKYMCNSSCMGGMNRRPILTIITLEDSSGNLLGRDSFEVRVCACPGRDRRTEEENFRKKEVL | soluble
MTTSPDPYAALPKLPSFSLTSTSITDGQPLATPQVSGIMGAGGADASPQLRWSGFPSETRSFAVTVYDPDAPTLSGFWHWAVANLPANVTELPEGVGDGRELPGGALTLVNDAGMRRYVGAAPPPGHGVHRYYVAVHAVKVEKLDLPEDASPAYLGFNLFQHAIARAVIFGTYEQR | soluble
MTEKGRAIEEESFRIVDQEAGPHGFSPLEWPVVRRMIHATADFEYKALTRFSQGAVEAGLKAIQAGARILVDARMIACGLNPERLRLFGNEVVELLAHPEVVARAKATGGTRAEAAVAYAWEKGLLDGAIVGVGNAPTFLLALVEAIRQGARPALVLGMPVGFVNVLEAKRALMEAPVPWIVTEGRKGGSTLVVAALHALIRLAADGGVDTSRAYREG | soluble
MTKIFAKEWNMSDPGRALASFFATLPTRPQLLALGEPNHTDDAFPAQRNRLFRTLVEEYGFRSIALESDILAGQRVNAYVTGGADDLEEVMRTGFSHDFGRRAANRELVGWLRDFNAGRSADEQVHFYGFDPPMENLWAASPRASLLTLHALLARQVPALPVSAATIERLCGDDARWANPAAGMDAAQSIGHSDEARQLRVLTDDLLHRLETGAPGLAEQPDFWEAQLAARTAAGLLRYHAVMADPAPDRIARMLAARDLLMAGHLLAIAEREQRCGPTLVFAHNLHLQRPLSRMKMGAQKIGAQTLDWWGAGAHVSRRLGERYAFIASYPGAAEETFLVPSSELTEAAATQLSVRDDGQPYSFPFKLSDLPFLNGALLVGQFLEHHHHHH | soluble
MGSDKIHHHHHHMKGVTLRGLEVFEALSRTGSVAQASTLTGLSQPAVSQQLRNLEQALGTDLVDHGRRPMVLTPAGRAFLPRAETVLSQLRLAQSELTVMDLTHLSTLSMGLIDDFDNDLTPRLATLLADSLTKCRFKLITAPSHEISEAMKARRLHIAVAATSGEVHDGIIEYPLVRDPFILVAPRGVVSKGGDMLASLQGLPLLRYAREQLIGRQIEAHLARQKLDFEERFEIGSHLALMAMVARRLGWAVTTPLGFMRAERFHDEVEAFALPFAAFSRRISLFAGADWADRVPRDVAETMRRLVQSQIIDPAVARLPWLGGELRVIES | not soluble
MDTIAFAYMGGKEYEWLFFEVYDRVRRFYRDVRLPINIVYAGKIILPPGTLIRVETASGFVNMYSFEAVVEALYGKLVEMRDDVNDDSITKIFGITTFPIGSRDRYFDIYKKYLGIQVNVGDYHVLALSIKPFFTENKYLFIERVFKGVLHEIGHLYGLSHCHEDCVMNPPKDIKDWDLRTPTYCNTCLRKLKNKEELMPKLQLLEHHHHHH | soluble
AGFKPAPPAGQLGAVIVDPYGNAPLTALVDLDSHVISDVKVTVHGKGEKGVEISYPVGQESLKTYDGVPIFGLYQKFANKVTVEWKENGKVMKDDYVVHTSAIVNNYMDNRSISDLQQTKVIKVAPGFEDRLYLVNTHTFTAQGSDLHWHGEKDKNAGILDAGPATGALPFDIAPFTFIVDTEGEYRWWLDQDTFYDGRDRDINKRGYLMGIRETPRGTFTAVQGQHWYEFDMMGQVLEDHKLPRGFADATHESIETPNGTVLLRVGKSNYRRDDGVHVTTIRDHILEVDKSGRVVDVWDLTKILDPKRDALLGALDAGAVCVNVDLAHAGQQAKLEPDTPFGDALGVGPGRNWAHVNSIAYDAKDDSIILSSRHQGVVKIGRDKQVKWILAPSKGWEKPLASKLLKPVDANGKPITCNENGLCENSDFDFTYTQHTAWISSKGTLTIFDNGDGRHLEQPALPTMKYSRFVEYKIDEKKGTVQQVWEYGKERGYDFYSPITSIIEYQADRNTMFGFGGSIHLFDVGQPTVGKLNEIDYKTKEVKVEIDVLSDKPNQTHYRALLVRPQQMFK | soluble
MSLSLEERERAVELYFTTPMTTAQVVEHLGYPTRQCLERWLAMDSRYAGHMAKPIIPLETRRRAVELVLGGMQQKQAAKQLGVSVGAVHGWVRAYRKGGMAALQPKNRNSAQGNKPADSRRRPSAADDDDAEALRRRVEELELENALMREVVEVVKKDPGADLRRLSNREKTLLIDRLRPAYSLRSMTCLLAIAPSSYHYHHARLGVDKYAGLRAEVAGAFADSKGRYGYRRIKAVLKTGVSEKVVRRIMAEEGLVAHVPKRRRYSSYEGETTPAPANLVDRDFTAERPNEKWLTDISEIKARDGKVYLSPMIDCFDGKIVAYTAGFSPNAELANRMLEKAASTLPGNARPLVHSDRGCHYRWPGWLGLMERFGLTRSMSAKGCSPDNAAAEGFFGRMKTESVYPEHWEKRTRDEVLILIDDYIRWYNHERIKRSLGWMSPVQYRQSQGMAEGHHHHHH | not soluble
MGSDKIHHHHHHMNTNKRVLILTANYGNGHVQVAKTLYEQCVRLGFQHVTVSNLYQESNPIVSEVTQYLYLKSFSIGKQFYRLFYYGVDKIYNKRKFNIYFKMGNKRLGELVDEHQPDIIINTFPMIVVPEYRRRTGRVIPTFNVMTDFCLHKIWVHENVDKYYVATDYVKEKLLEIGTHPSNVKITGIPIRPQFEESMPVGPIYKKYNLSPNKKVLLIMAGAHGVLKNVKELCENLVKDDQVQVVVVCGKNTALKESLSALEAENGDKLKVLGYVERIDELFRITDCMITKPGGITLTEATAIGVPVILYKPVPGQEKENANFFEDRGAAIVVNRHEEILESVTSLLADEDTLHRMKKNIKDLHLANSSEVILEDILKESEMMTAKQKAKVLS | not soluble
PAKLGYWKLRGLAQPVRLFLEYLGEEYEEHLYGRDDREKWMSEKFNMGLDLPNLPYYIDDKCKLTQSVAIMRYIADKHGMLGTTPEERARISMIEGAAMDLRIGFGRVCYNPKFEEVKEEYVKELPKTLKMWSDFLGDRHYLTGSSVSHVDFMLYETLDSIRYLAPHCLDEFPKLKEFKSRIEALPKIKAYMESKRFIKWPLNGWAASFGAGDAPPS | soluble
MRILAIGDIIGRPGRKALRELLPQLKEEVAYDVVIANVENSAGGFGITKKVYEELLEIGIDVMTSGNHIWDKKEVYNFIGEAYNLLRPANYPEGVPGRGYGIFKKNGVEFAVINLMGKVFMDCNLENPFKTFDRIYDELKDKVKIIVVDFHAEATSEKWAFGIYVDGRASFVYGTHTHVPTADEFILKKGTGYVSDIGMTGVWYSAIGMKPKEAIERFLLSLPRRFEVEDKGEIMFNAVLVDIDEETGKTKSIERIKRFL | soluble
FQGAMDPEFSMKIGIIGAMEEEVTLLRDKIENRQTISLGGCEIYTGQLNGTEVALLKSGIGKVAAALGATLLLEHCKPDVIINTGSAGGLAPTLKVGDIVVSDEARYHDADVTAFGYEYGQLPGCPAGFKADDKLIAAAEACIAELNLNAVRGLIVSGDAFINGSVGLAKIRHNFPQAIAVEMEATAIAHVCHNFNVPFVVVRAISDVADQQSHLSFDEFLAVAAKQSSLMVESLVQKLAHG | soluble
MGSDKIHHHHHHMDNKKPKIITIASIKGGVGKSTSAIIMATLLAKEHKVLLIDMDTQASTTSYFYKEILNQNIDIVKINVYRVLKEKIDINDSIVKIKENLDLIPSYLTLNKFLSESIPLKELRLQNNLEFLKRRYHYVIIDTNPSLDYTLSNALMTSNCIIVPMTAEKWAVESLELLEFHMNNLKIKIPIFLVITRFKKNNTHKQLLQHVESKTGFLGFIHEREDLNKKIAKNEEFDMTKDYINEYKGVLSRFLIVYDEYVK | not soluble
